Biological target: CD70 (UniProt O55237)
Assay: cell-based or functional assay

Sequence of UniProt O55237 (O55237 whole entry): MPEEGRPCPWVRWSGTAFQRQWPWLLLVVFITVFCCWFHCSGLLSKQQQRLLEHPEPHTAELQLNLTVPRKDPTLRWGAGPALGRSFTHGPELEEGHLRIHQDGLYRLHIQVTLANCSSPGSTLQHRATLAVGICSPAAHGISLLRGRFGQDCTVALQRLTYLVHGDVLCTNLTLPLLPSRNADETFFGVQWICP

CD8+ T cell response (tetramer staining of day 7 PBLs) in CD4-depleted IFNαβR KO mice: 10 fold
Substance: anti-CD70 blocking antibody FR70

Source: patent publication US7993648
